Experimental data reported in patent US20230227838A1, “ENHANCED CELL SURVIVAL AGAINST BIOTIC AND ABIOTIC STRESSES THROUGH SALICYLICK ACID-INDUCED NPR1 CONDENSATES” (priority 2020, published 2023).
Changes are numbered by the printed parent chain.

B1: sim3: SUMOylation-deficient mutant of NPR1 (protein)
chain: MDTTIDGFADSYEISSTSFVATDNTDSSIVYLAAEQVLTGPDVSALQLLSNSFESVFDSPDDFYSDAKLVLSDGREVSFHRCVLSARSSFFKSALAAAKKEKDSNNTAAVKLELKEIAKDYEVGFDSVVTVLAYVYSSRVRPPPKGVSECADENCCHVACRPAVDFMLEVLYLAFIFKIPELITLYQRHLLDVVDKVVIEDTLVILKLANICGKACMKLLDRCKEIIVKSNVDMVSLEKSLPEELVKEIIDRRKELGLEVPKVKKHVSNVHKALDSDDIELVKLLLKEDHTNLDDACALHFAVAYCNVKTATDLLKLDLADVNHRNPRGYTVLHVAAMRKEPQLAASALEKGASASEATLEGRTALMIAKQATMAVECNNIPEQCKHSLKGRLCVEILEQEDKREQIPRDVPPSFAVAADELKMTLLDLENRVALAQRLFPTEAQAAMEIAEMKGTCEFIVTSLEPDRLTGTKRTSPGVKIAPFRILEEHQSRLKALSKTVELGKRFFPRCSAVLDQIMNCEDLTQLACGEDDTAEKRLQKKQRYMEIQETLKKAFSEDNLELGNSSLTDSTSSTSKSTGGKRSNRKLSHRRR
modifications: left off: small tags and cut ends
notes: SUMOylation-deficient mutant of NPR1
B2: S55/59D: phosphomimic mutant of NPR1 at S55/59 (protein)
chain: B1 chain with S55D, S59D, A345I, A346L, A348L
modifications: left off: small tags and cut ends

test system: CUL3; test: BiFC assay of interaction with CUL3; assay type: cell-based, Arabidopsis thaliana; settings: 1 mM SA for 5 hr
Excerpt: Plasmid construction and E. coli-based ubiquitination: The coding sequences for all Arabidopsis genes were amplified from cDNA. Point mutations of AtNPR1 (AT1G64280) were generated using the QuikChange II site-directed mutagenesis kit (Agilent). Overlap PCR was used to generate the deletion/truncation mutations of AtCUL3A (AT1G26830) and AtNPR1. The WT and mutated coding sequences for all genes and gene fusions were sub-cloned into the pDONR207 gateway donor vector and confirmed by sequencing. The obtained entry vectors were recombined into either plant or E. coli destination vectors without or with an N- or C-terminal tag. For in planta expression, genes were recombined into the plant binary vectors pK7FWG2, pSITE-4NB and pLN462 to generate C-terminal eGFP, mCherry and HA fusions, respectively; into pK7WGF2, pEG201, pEG202, pEG203 and pEG204 to generate N-terminal eGFP, HA, FLAG, Myc and V5 fusions, respectively. For co-expression of NPR1 and CUL3 in E. coli, NPR1 or its mutant/truncation variants were first recombined into pDEST15 vector to generate N-terminal GST fusions (GST-NPR1). Next, E. coli-codon-optimized coding sequence of AtCUL3A fused to the Myc tag was amplified from pEG203-CUL3 and inserted between NdeI and XhoI in the MCS-II of pCDFDuet-1 to generate pCDFDuet-1:Myc-CUL3 plasmid. The two plasmids, pDEST15-NPR1 and pCDFDuet-1:Myc-CUL3, were co-transformed into the E. coli strain BL21(DE3) and protein expression was induced with 0.25 mM IPTG for 12 hr at 20° C. For co-expression of NPR1 and EDS1 in E. coli, the coding sequence of AtEDS1 (AT3G48090) fused to FLAG tag was inserted between NcoI and NotI in MCS-I of pETDuet-1 to first generate the pETDuet-1:FLAG-EDS1 plasmid. […] For bimolecular fluorescence complementation (BiFC), entry vectors carrying the coding sequences of genes and their mutant variants were recombined into the pSITE-cEYFP-N1 binary vector for C-terminal fusion with the cYFP half (YC), or into the pSITE-nEYFP-C1 for N-terminal fusion with the nYFP half (YN). […]

Row | Molecule | BiFC signal of interaction with CUL3
1 | NPR1: wild-type Arabidopsis thaliana NPR1 protein, positive regulator of systemic acquired resistance | clear interactions with CUL3 in discrete cytoplasmic condensates
2 | B1 | more intense
3 | B2 | significantly weaker BiFC signal
